Test results: the supplement of paper PMC10567573

B1: CCDC89 (parent)
chain: LNAELEEKMMQEAEKLKAQGEYSR

Variants of: B1
Assay: protein stability index of a GFP-peptide fusion (GPS, HEK-293T) (PSI 1-6); higher = more stable
Conditions: c terminus: a fixed tail appended
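Also: lentivirally expressed fusions sorted by FACS into six bins by GFP to DsRed ratio, PSI derived from sequencing read proportions per bin multiplied by bin number.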

In order of rising protein stability index:
1. LNAELEEKMMQEAEKLKAYGEYSR [Q19Y]  2.53
2. LNAELEEKMMQEAEKLKAQCEYSR [G20C]  2.96
3. LNAELEEKMMQEAEKLKALGEYSR [Q19L]  2.99
4. LNAELEEKMMQEAEKLKAQLEYSR [G20L]  2.99
5. LNAELEEKMMQEAEKLKAFGEYSR [Q19F]  3.64
6. LNAELEEKMMQEAEKLKAQIEYSR [G20I]  3.68
7. LNAELEEKMMQEAEKLKAQGEYSW [R24W]  3.81
8. LNAELEEKMMQEAEKLKAIGEYSR [Q19I]  3.83
9. LNAELEEKMMQEAEKLKLQGEYSR [A18L]  3.87
10. LNAELEEKMMQEAEKLKAQGEYHR [S23H]  3.95
11. LNAELEEKMMQEAEKLKAMGEYSR [Q19M]  4.13
12. LNAELEEKMMQEAEKLKHQGEYSR [A18H]  4.15
13. LNAELEEKMMQEAEKLKWQGEYSR [A18W]  4.15
14. LNAELEEKMMQEAEKLKAQGEYIR [S23I]  4.19
15. LNAELEEKMMQEAEKLKFQGEYSR [A18F]  4.28
16. LNAELEEKMMQEAEYLKAQGEYSR [K15Y]  4.3
17. LNAELEEKMMQEAEKLKRQGEYSR [A18R]  4.31
18. LNAELEEKMMQEAEKLKIQGEYSR [A18I]  4.32
19. LNAELEEKMMQEAEKLKAQHEYSR [G20H]  4.35
20. LNAELEEKMMQEAEKLKAQGEYVR [S23V]  4.43
21. LNAELEEKMMQEAEKLKGQGEYSR [A18G]  4.43
22. LNAELEEKMMQEAEKLKAQYEYSR [G20Y]  4.44
23. LNAELEEKMMQEAEKLKAQGEFSR [Y22F]  4.46
24. LNAELEEKMMQEAEKLKAQGEYYR [S23Y]  4.47
25. LNAELEEKMMQEALKLKAQGEYSR [E14L]  4.5
26. LNAELEEKMMQEAEKLKAQGEYNR [S23N]  4.51
27. LNAELEEKMMQEAEKLKAQGEYAR [S23A]  4.62
28. LNAELEEKMMQEAEKLKAWGEYSR [Q19W]  4.62
29. LNAELEEKMMQEAEKLKAQGEYSQ [R24Q]  4.63
30. LNAELEEKMMQEAEKLKAQGEESR [Y22E]  4.65
31. LNAELEEKMMQEAEKLKAQGEYSF [R24F]  4.66
32. LNAELEEKMMQEAEKLKACGEYSR [Q19C]  4.66
33. LNAELEEKMMQEANKLKAQGEYSR [E14N]  4.66
34. LNAELEEKMMQEAEKLKPQGEYSR [A18P]  4.7
35. LNAELEEKMMQEAEKLKMQGEYSR [A18M]  4.71
36. LNAELEEKMMQEAENLKAQGEYSR [K15N]  4.71
37. LNAELEEKMMQEAEKLKAQGEYCR [S23C]  4.73
38. LNAELEEKMMQEAEKLKAHGEYSR [Q19H]  4.74
39. LNAELEEKMMQEAEKLKAQGEYFR [S23F]  4.75
40. LNAELEEKMMQEAEKLKCQGEYSR [A18C]  4.79
41. LNAELEEKMMQEAEKLKANGEYSR [Q19N]  4.82
42. LNAELEEKMMQEAEKLKAQEEYSR [G20E]  4.82
43. LNAELEEKMMQEAEKLKAQREYSR [G20R]  4.85
44. LNAELEEKMMQEAEKLKAQGEYSI [R24I]  4.86
45. LNAELEEKMMQEAEKLKAQSEYSR [G20S]  4.91
46. LNAELEEKMMQEAEKLKAQGEYKR [S23K]  4.92
47. LNAELEEKMMQEAEKLKDQGEYSR [A18D]  4.95
48. LNAELEEKMMQEAEKLKAGGEYSR [Q19G]  4.95
49. LNAELEEKMMQEAEKLKAQGEYWR [S23W]  4.97
50. LNAELEEKMMQEAEKLKAQGEYTR [S23T]  4.98
51. LNAELEEKMMQEAEKLKAQAEYSR [G20A]  4.98
52. LNAELEEKMMQEAEKLKAQGEYSM [R24M]  4.99
53. LNAELEEKMMQEAEKLKAQNEYSR [G20N]  4.99
54. LNAELEEKMMQEAELLKAQGEYSR [K15L]  4.99
55. LNAELEEKMMQEAEKLKAQGEYSN [R24N]  5.03
56. LNAELEEKMMQEAEKLKAQGEYQR [S23Q]  5.04
57. LNAELEEKMMQEAEKLKTQGEYSR [A18T]  5.07
58. LNAELEEKMMQEAEKLKNQGEYSR [A18N]  5.09
59. LNAELEEKMMQEAEKLKAQGEYMR [S23M]  5.11
60. LNAELEEKMMQEAEKLKAPGEYSR [Q19P]  5.12
61. LNAELEEKMMQEAEKLKAQGEYGR [S23G]  5.13
62. LNAELEEKMMQEAQKLKAQGEYSR [E14Q]  5.15
63. LNAELEEKMMQEAEKLKATGEYSR [Q19T]  5.18
64. LNAELEEKMMQEAEKLKASGEYSR [Q19S]  5.19
65. LNAELEEKMMQEAEKLKAQGEYLR [S23L]  5.2
66. LNAELEEKMMQEAEKLKAQKEYSR [G20K]  5.22
67. LNAELEEKMMQEAEKLKAAGEYSR [Q19A]  5.24
68. LNAELEEKMMQEAEKLKAQGECSR [Y22C]  5.25
69. LNAELEEKMMQEAEKLKAQGESSR [Y22S]  5.28
70. LNAELEEKMMQEAEKLKAQGEMSR [Y22M]  5.29
71. LNAELEEKMMQEAEKLKAQGEISR [Y22I]  5.29
72. LNAELEEKMMQEAEKLKQQGEYSR [A18Q]  5.3
73. LNAELEEKMMQEAEKLKAKGEYSR [Q19K]  5.3
74. LNAELEEKMMQEAEKLKAQVEYSR [G20V]  5.31
75. LNAELEEKMMQEAEKLKAQGELSR [Y22L]  5.34
76. LNAELEEKMMQEAEKLKAQGEYSC [R24C]  5.37
77. LNAELEEKMMQEAEKLKAQGEYSS [R24S]  5.38
78. LNAELEEKMMQEAEKLKAQPEYSR [G20P]  5.43
79. LNAELEEKMMQEAEKLKAQGEYSP [R24P]  5.48
80. LNAELEEKMMQEAEKLKAQGEYSA [R24A]  5.49
81. LNAELEEKMMQEAEKLKAQGEYSK [R24K]  5.53
82. LNAELEEKMMQEAEKLKAQGEKSR [Y22K]  5.55
83. LNAELEEKMMQEAEKLKAVGEYSR [Q19V]  5.57
84. LNAELEEKMMQEAEKLKAQGEGSR [Y22G]  5.63
85. LNAELEEKMMQEAEKLKAQGEYSV [R24V]  5.64
86. LNAELEEKMMQEAEKLKAQGEQSR [Y22Q]  5.64
87. LNAELEEKMMQEAEKLKAQGEYSD [R24D]  5.67
88. LNAELEEKMMQEAEKLKAQGEYDR [S23D]  5.7
89. LNAELEEKMMQEAEKLKAQGEYSH [R24H]  5.78
90. LNAELEEKMMQEAEKLKAQGENSR [Y22N]  5.79
91. LNAELEEKMMQEAEKLKAQGEYSG [R24G]  5.81
92. LNAELEEKMMQEAEKLKAEGEYSR [Q19E]  5.84
93. LNAELEEKMMQEAEKLKADGEYSR [Q19D]  5.85
94. LNAELEEKMMQEAEKLKAQGEDSR [Y22D]  5.99
